Data published in patent publication EP4606382A1 (Fundació Centre de Regulació Genòmica, dated 2025).

Target: T1, NanoLuc-cTAGE5-CC2 (predicted binding region of cTAGE5 coiled-coil 2 with a Nanoluciferase tag at the …)
T1 construct: The fusion construct was expressed inside live HEK293T cells; also called C5-CC2; c5-CC2
T1 chain: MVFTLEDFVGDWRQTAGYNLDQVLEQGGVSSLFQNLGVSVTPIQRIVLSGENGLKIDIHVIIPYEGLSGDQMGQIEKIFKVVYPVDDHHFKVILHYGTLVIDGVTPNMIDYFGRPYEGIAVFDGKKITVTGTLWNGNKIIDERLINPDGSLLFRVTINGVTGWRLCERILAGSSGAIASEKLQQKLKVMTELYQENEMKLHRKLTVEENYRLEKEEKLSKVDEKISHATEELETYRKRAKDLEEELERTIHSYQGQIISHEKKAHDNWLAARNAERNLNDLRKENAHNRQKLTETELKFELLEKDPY
Experiment: NanoBRET in live HEK293T cells (HaloTag 618 acceptor, NanoLuc donor)

binding result: binds
B1: Halo-T1-CC2 (portion of the coiled-coil region CC2 of TANGO1 with an N-terminal fusion of HaloTag) (other)
chain: MAEIGTGFPFDPHYVEVLGERMHYVDVGPRDGTPVLFLHGNPTSSYVWRNIIPHVAPTHRCIAPDLIGMGKSDKPDLGYFFDDHVRFMDAFIEALGLEEVVLVIHDWGSALGFHWAKRNPERVKGIAFMEFIRPIPTWDEWPEFARETFQAFRTTDVGRKLIIDQNVFIEGTLPMGVVRPLTEVEMDHYREPFLNPVDREPLWRFPNELPIAGEPANIVALVEEYMDWLHQSPVPKLLFWGTPGVLIPPAEAARLAKSLPNCKAVDIGPGLNLLQEDNPDLIGSEIARWLSTLEISGEPTTEDLYFQSDNAIASELRQKVEILNELYQQKEMALQKKLSQEEYERQEREHRLSAADEKAVSAAEEVKTYKRRIEEMEDELQKTERSFKNQIATHEKKAHENWLKARAAERAIAEEKREAANLRHKLLELTQKMAMLQEEP
modifications: HaloTag labeled with the HaloTag 618 fluorescent ligand
notes: The fusion construct was expressed inside live HEK293T cells; also called Halo-TANGO1-CC2; TANGO1-CC2
